Results taken from paper PMC11844729.

Assays:
[1] = biological target: mN2G^CH (N-terminal CH domains of nesprin-2G only) (mouse); experiment: mass photometry
[2] = biological target: F-actin (actin filaments from rabbit skeletal muscle actin) (rabbit) (UniProt P68135); experiment: single-molecule TIRF microscopy

stoichiometry N [1]: 2
fold residence time on F-actin against utrophin [2]: > 2 fold
Substance: mN2G^CH (N-terminal CH domains of nesprin-2G only) (domain or fragment)
